Test results: US6656716

What was measured:
[1] = molecular target: T1, KHS1 activation loop peptide # 4, KRKSFIGTPYWMAPE, aa 171-185 (not fully specified)
T1 chain: KRKSFIGTPYWMAPE

[2] = molecular target: T2, PAK5 activation loop peptide # 1, (C)RRKSLVGTPYWMAPE, aa 471-485
T2 chain: CRRKSLVGTPYWMAPE

[3] = molecular target: T3, PAK5 activation loop peptide # 2, (C)RRKSLVGTPYWMAPE, aa 471-485
T3 chain: CRRKSLVGTPYWMAPE

[4] = molecular target: T4, PAK5 activation loop peptide # 3, (C)RRKSLVGTPYWMAPE, aa 471-485 (not fully specified)
T4 chain: CRRKSLVGTPYWMAPE

[5] = molecular target: T5, STLK2 activation loop peptide # 5, KRNTFVGTPFWMAPE, aa 175-189 (not fully specified)
T5 chain: KRNTFVGTPFWMAPE

[6] = molecular target: T6, STLK4 activation loop peptide # 9, RNKVRKTFVGTPCWMAPE, aa 66-83 (not fully specified)
T6 chain: RNKVRKTFVGTPCWMAPE

[7] = molecular target: T7, SULU1 activation loop peptide # 6, PANSFVGTPYWMAPE, aa 174-188 (not fully specified)
T7 chain: PANSFVGTPYWMAPE

[8] = molecular target: T8, ZC1 activation loop peptide # 7, RRNTFIGTPYWMAPE, aa 184-198 (SEQ ID 125) (not fully specified)
T8 chain: RRNTFIGTPYWMAPE

[9] = molecular target: T9, ZC1 activation loop peptide # 8, RRNTFIGTPYWMAPE, aa 184-198 (SEQ ID 126)
T9 chain: RRNTFIGTPYWMAPE

B1: human PAK5 (protein)
chain: MFGKRKKRVEISAPSNFEHRVHTGFDQHEQKFTGLPRQWQSLIEESARRPKPLVDPACITSIQPGAPKTIVRGSKGAKDGALTLLLDEFENMSVTRSNSLRRDSPPPPARARQENGMPEEPATTARGGPGKAGSRGRFAGHSEAGGGSGDRRRAGPEKRPKSSREGSGGPQESSRDKRPLSGPDVGTPQPAGLASGAKLAAGRPFNTYPRADTDHPSRGAQGEPHDVAPNGPSAGGLAIPQSSSSSSRPPTRARGAPSPGVLGPHASEPQLAPPACTPAAPAVPGPPGPRSPQREPQRVSHEQFRAALQLVVDPGDPRSYLDNFIKIGEGSTGIVCIATVRSSGKLVAVKKMDLRKQQRRELLFNEVVIMRDYQHENVVEMYNSYLVGDELWVVMEFLEGGALTDIVTHTRMNEEQIAAVCLAVLQALSVLHAQGVIHRDIKSDSILLTHDGRVKLSDFGFCAQVSKEVPRRKSLVGTPYWMAPELISRLPYGPEVDIWSLGIMVIEMVDGEPPYFNEPPLKAMKMIRDNLPPRLKNLHKVSPSLKGFLDRLLVRDPAQRATAAELLKHPFLAKAGPPASIVPLMRQNRTR
- substrate (in vitro kinase assay) [1]: yes
- substrate (in vitro kinase assay) [2]: yes
- substrate (in vitro kinase assay), note [2]: Equally well as MBB
- Km [3]: High Km for PAK5 (1-10 µM)
- substrate (in vitro kinase assay) [3]: yes
- substrate (in vitro kinase assay) [4]: no
- substrate (in vitro kinase assay) [5]: poor
- substrate (in vitro kinase assay) [6]: poor
- substrate (in vitro kinase assay) [7]: poor
- substrate (in vitro kinase assay) [8]: poor
- substrate (in vitro kinase assay) [9]: poor
- substrate (in vitro kinase assay), note [9]: Better than 7
